Where two headings read alike, the source gives them in different places.

Assay [1] concerns the target T1, CXCR1 (UniProt P25024 1-350, limits assumed).
T1 sequence (looked up): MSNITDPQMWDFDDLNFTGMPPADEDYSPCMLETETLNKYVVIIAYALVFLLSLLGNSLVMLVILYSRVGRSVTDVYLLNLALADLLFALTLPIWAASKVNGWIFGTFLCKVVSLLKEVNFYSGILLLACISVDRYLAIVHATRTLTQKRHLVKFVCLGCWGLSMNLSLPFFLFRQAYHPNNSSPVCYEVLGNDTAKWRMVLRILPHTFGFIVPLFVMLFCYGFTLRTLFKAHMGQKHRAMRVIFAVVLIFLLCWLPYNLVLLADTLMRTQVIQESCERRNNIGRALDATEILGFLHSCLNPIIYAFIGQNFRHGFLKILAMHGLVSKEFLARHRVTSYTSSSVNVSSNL
Briefly: cell-based or functional assay.

Assay [2] concerns the target T2, CXCR1 (UniProt P25024 1-350, limits assumed).
T2 construct: whole, on cells; DiscoveRx PathHunter cell line; any reporter tag on the receptor is not described; also called CXCR1 receptor; CXCR1-U2OS
T2 sequence (looked up): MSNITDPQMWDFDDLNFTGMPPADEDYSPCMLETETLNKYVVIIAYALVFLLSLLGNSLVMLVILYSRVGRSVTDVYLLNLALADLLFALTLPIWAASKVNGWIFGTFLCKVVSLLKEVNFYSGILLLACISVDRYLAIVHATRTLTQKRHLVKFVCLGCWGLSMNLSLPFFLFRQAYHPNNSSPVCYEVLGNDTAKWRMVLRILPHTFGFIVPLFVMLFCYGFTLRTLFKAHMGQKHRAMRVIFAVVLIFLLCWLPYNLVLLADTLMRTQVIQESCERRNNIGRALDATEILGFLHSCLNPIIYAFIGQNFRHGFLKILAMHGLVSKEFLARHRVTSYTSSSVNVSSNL
Briefly: flow cytometry, supernatant at 5 nM IgG. On the technique in general: Flow cytometry measures light scatter and fluorescence of single cells or particles in a stream.

Assay [3] addresses T2, CXCR1. Briefly: cell-based or functional assay. This is another data set of the same source.
The target in assay [4] is T2, CXCR1. As to the kind of experiment: flow cytometry, supernatant at 5 nM IgG. The source holds these as a separate data set.

B1: VH4-34 MutE IL-8 5R6E31D32K50S (antibody, human IgG1)
VH: QVQLREWGAGLLKPSETLSLTCAVYGGSFSDKYWSWIRQPPGKGLEWIGSINHSGSTNYNPSLKSRVTISVDTSKNQFSLKLSSVTAADTAVYYCTSVHQETKKYQSPRSAKELRCQCIKTYSKPFHPKFIKELRVIESGPHCANTEIIVKLSDGRELCLDPKENWVQRVVEKFLKRAENSGSGSYTYNYEWHVDVWGQGLLVTVSS
light: QAVLNQPSSVSGSLGQKVTISCSGSSSNIGNNYVSWYQQLPGTAPRTLIYGDTKRPSGIPDRFSGSKSGTSATLGITGLQTGDEADYYCASAEDSSSNAVFGSGTTLTVLGQPKAAPSVTLFPPSSEELQANKATLVCLISDFYPGAVTVAWKADSSPVKAGVETTTPSKQSNNKYAASSYLSLTPEQWKSHRSYSCQVTHEGSTVEKTVAPTECS
Regarding B1, in the assay with CXCR1 [1], the “CXCR1 activation, luminescence, 0.1 nM IL-8 domains” value was determined as 4060 luminescence; the “CXCR1 activation, luminescence, 0.5 nM IL-8 domains” value came out at 5300 luminescence; the “CXCR1 activation, luminescence, 2.2 nM IL-8 domains” value turned out to be 10300 luminescence; the “CXCR1 activation, luminescence, 9.9 nM IL-8 domains” value came to 17100 luminescence. In addition, in the assay with CXCR1 [1], the “CXCR1 activation, luminescence, 44 nM IL-8 domains” value amounted to 23300 luminescence and the “CXCR1 activation, luminescence, 200 nM IL-8 domains” value is 22300 luminescence.

B2: VH4-34+CDR3-IL8 / VL1-51 S2A, T5N, P8S, A12G, A13S, P14L, K46R, L47T, D51G, N52D, N53T IgG (antibody)
VH: QVQLQQWGAGLLKPSETLSLTCAVYGGSFSGYYWSWIRQPPGKGLEWIGEINHSGSTNYNPSLKSRVTISVDTSKNQFSLKLSSVTAADTAVYYCTSVHQETKKYQSPRSAKELRCQCIKTYSKPFHPKFIKELRVIESGPHCANTEIIVKLSDGRELCLDPKENWVQRVVEKFLKRAENSGSGSYTYNYEWHVDVWGQGLLVTVSSAS
light: QAVLNQPSSVSGSLGQKVTISCSGSSSNIGNNYVSWYQQLPGTAPRTLIYGDTKRPSGIPDRFSGSKSGTSATLGITGLQTGDEADYYCASAEDSSSNAVFGSGTTLTVLGQPKAAPSVTLFPPSSEELQANKATLVCLISDFYPGAVTVAWKADSSPVKAGVETTTPSKQSNNKYAASSYLSLTPEQWKSHRSYSCQVTHEGSTVEKTVAPTECS
notes: nt HC 430, LC 486
Take B2: the “Specific Binding (CXCR1-Cell median AFU / Parental Cell median AFU)” value with CXCR1 [2] came to 12.

B3: VH4-34 MutF IL-8 5R6E CD1cow (antibody, human IgG1)
VH: QVQLREWGAGLLKPSETLSLTCTASGFSLSDKAVGWIRQPPGKGLEWIGEINHSGSTNYNPSLKSRVTISVDTSKNQFSLKLSSVTAADTAVYYCTSVHQETKKYQSPRSAKELRCQCIKTYSKPFHPKFIKELRVIESGPHCANTEIIVKLSDGRELCLDPKENWVQRVVEKFLKRAENSGSGSYTYNYEWHVDVWGQGLLVTVSS
light: QAVLNQPSSVSGSLGQKVTISCSGSSSNIGNNYVSWYQQLPGTAPRTLIYGDTKRPSGIPDRFSGSKSGTSATLGITGLQTGDEADYYCASAEDSSSNAVFGSGTTLTVLGQPKAAPSVTLFPPSSEELQANKATLVCLISDFYPGAVTVAWKADSSPVKAGVETTTPSKQSNNKYAASSYLSLTPEQWKSHRSYSCQVTHEGSTVEKTVAPTECS
Turning to B3, in the assay with CXCR1 [1], the “CXCR1 activation, luminescence, 0.1 nM IL-8 domains” value is 4180 luminescence; the “CXCR1 activation, luminescence, 0.5 nM IL-8 domains” value was found to be 6620 luminescence; the “CXCR1 activation, luminescence, 2.2 nM IL-8 domains” value was found to be 13500 luminescence; the “CXCR1 activation, luminescence, 9.9 nM IL-8 domains” value was 21900 luminescence. Besides, in the assay with CXCR1 [1], the “CXCR1 activation, luminescence, 44 nM IL-8 domains” value was 24000 luminescence and the “CXCR1 activation, luminescence, 200 nM IL-8 domains” value came to 25000 luminescence.

B4: VH4-34+CDR3-IL8_CDR2 Cow / VL1-51 S2A, T5N, P8S, A12G, A13S, P14L, K46R, L47T, D51G, N52D, N53T IgG (antibody)
VH: QVQLQQWGAGLLKPSETLSLTCAVYGGSFSGYYWSWIRQPPGKGLEWLGSIDTGGNTGYNPSLKSRVTISVDTSKNQFSLKLSSVTAADTAVYYCTSVHQETKKYQSPRSAKELRCQCIKTYSKPFHPKFIKELRVIESGPHCANTEIIVKLSDGRELCLDPKENWVQRVVEKFLKRAENSGSGSYTYNYEWHVDVWGQGLLVTVSSAS
light: QAVLNQPSSVSGSLGQKVTISCSGSSSNIGNNYVSWYQQLPGTAPRTLIYGDTKRPSGIPDRFSGSKSGTSATLGITGLQTGDEADYYCASAEDSSSNAVFGSGTTLTVLGQPKAAPSVTLFPPSSEELQANKATLVCLISDFYPGAVTVAWKADSSPVKAGVETTTPSKQSNNKYAASSYLSLTPEQWKSHRSYSCQVTHEGSTVEKTVAPTECS
notes: nt HC 433, LC 486
Take B4: the “Specific Binding (CXCR1-Cell median AFU / Parental Cell median AFU)” value in the assay with CXCR1 [2] worked out at 3.

B5: VH4-34+CDR3-IL8_CDR1-G31DY32K_CDR2-E50S_Q5RQ6E / VL1-51 S2A, T5N, P8S, A12G, A13S, P14L, K46R, L47T, D51G, N52D, N53T IgG (antibody)
VH: QVQLREWGAGLLKPSETLSLTCAVYGGSFSDKYWSWIRQPPGKGLEWIGSINHSGSTNYNPSLKSRVTISVDTSKNQFSLKLSSVTAADTAVYYCTSVHQETKKYQSPRSAKELRCQCIKTYSKPFHPKFIKELRVIESGPHCANTEIIVKLSDGRELCLDPKENWVQRVVEKFLKRAENSGSGSYTYNYEWHVDVWGQGLLVTVSS
light: QAVLNQPSSVSGSLGQKVTISCSGSSSNIGNNYVSWYQQLPGTAPRTLIYGDTKRPSGIPDRFSGSKSGTSATLGITGLQTGDEADYYCASAEDSSSNAVFGSGTTLTVLGQPKAAPSVTLFPPSSEELQANKATLVCLISDFYPGAVTVAWKADSSPVKAGVETTTPSKQSNNKYAASSYLSLTPEQWKSHRSYSCQVTHEGSTVEKTVAPTECS
notes: also called BID 38; VH4-34 MutE IL-8 5R6E31D32K50S
Take B5: in the assay with CXCR1 [3], the “CXCR1 activation, luminescence at 0.4 nM IL-8 domains” value came to 6190; the “CXCR1 activation, luminescence at 1.6 nM IL-8 domains” value stood at 8160; the “CXCR1 activation, luminescence at 6.25 nM IL-8 domains” value worked out at 13500; the “CXCR1 activation, luminescence at 25 nM IL-8 domains” value came out at 21000. Also, the “CXCR1 activation, luminescence at 100 nM IL-8 domains” value with CXCR1 [3] came out at 25900. Moreover, the “Specific Binding (CXCR1-Cell median AFU / Parental Cell median AFU)” value with CXCR1 [4] turned out to be 4.

B6: VH4-34+CDR3-IL8_CDR1-G31DY32K_CDR2-E50S / VL1-51 S2A, T5N, P8S, A12G, A13S, P14L, K46R, L47T, D51G, N52D, N53T IgG (antibody)
VH: QVQLQQWGAGLLKPSETLSLTCAVYGGSFSDKYWSWIRQPPGKGLEWIGSINHSGSTNYNPSLKSRVTISVDTSKNQFSLKLSSVTAADTAVYYCTSVHQETKKYQSPRSAKELRCQCIKTYSKPFHPKFIKELRVIESGPHCANTEIIVKLSDGRELCLDPKENWVQRVVEKFLKRAENSGSGSYTYNYEWHVDVWGQGLLVTVSSAS
light: QAVLNQPSSVSGSLGQKVTISCSGSSSNIGNNYVSWYQQLPGTAPRTLIYGDTKRPSGIPDRFSGSKSGTSATLGITGLQTGDEADYYCASAEDSSSNAVFGSGTTLTVLGQPKAAPSVTLFPPSSEELQANKATLVCLISDFYPGAVTVAWKADSSPVKAGVETTTPSKQSNNKYAASSYLSLTPEQWKSHRSYSCQVTHEGSTVEKTVAPTECS
notes: also called BID 37; VH4-34 MutC IL-8 31D32K50S
In the case of B6, in the assay with CXCR1 [3], the “CXCR1 activation, luminescence at 0.4 nM IL-8 domains” value was found to be 5420; the “CXCR1 activation, luminescence at 1.6 nM IL-8 domains” value worked out at 5710; the “CXCR1 activation, luminescence at 6.25 nM IL-8 domains” value was determined as 7160; the “CXCR1 activation, luminescence at 25 nM IL-8 domains” value came out at 11200. Also, the “CXCR1 activation, luminescence at 100 nM IL-8 domains” value with CXCR1 [3] was 15500. Moreover, in the assay with CXCR1 [2], the “Specific Binding (CXCR1-Cell median AFU / Parental Cell median AFU)” value came out at 18.

B7: VH4-34+CDR3-IL8_CDR1-Cow_CDR2-Cow / VL1-51 S2A, T5N, P8S, A12G, A13S, P14L, K46R, L47T, D51G, N52D, N53T IgG (antibody)
VH: QVQLQQWGAGLLKPSETLSLTCTASGFSLSDKAVGWIRQPPGKGLEWLGSIDTGGNTGYNPSLKSRVTISVDTSKNQFSLKLSSVTAADTAVYYCTSVHQETKKYQSPRSAKELRCQCIKTYSKPFHPKFIKELRVIESGPHCANTEIIVKLSDGRELCLDPKENWVQRVVEKFLKRAENSGSGSYTYNYEWHVDVWGQGLLVTVSSAS
light: QAVLNQPSSVSGSLGQKVTISCSGSSSNIGNNYVSWYQQLPGTAPRTLIYGDTKRPSGIPDRFSGSKSGTSATLGITGLQTGDEADYYCASAEDSSSNAVFGSGTTLTVLGQPKAAPSVTLFPPSSEELQANKATLVCLISDFYPGAVTVAWKADSSPVKAGVETTTPSKQSNNKYAASSYLSLTPEQWKSHRSYSCQVTHEGSTVEKTVAPTECS
notes: also called BID 39; VH4-34 MutD IL-8 CDR1cow CDR2cow
Consider B7, for which, in the assay with CXCR1 [3], the “CXCR1 activation, luminescence at 0.4 nM IL-8 domains” value turned out to be 6310; the “CXCR1 activation, luminescence at 1.6 nM IL-8 domains” value stood at 7400; the “CXCR1 activation, luminescence at 6.25 nM IL-8 domains” value came out at 10200; the “CXCR1 activation, luminescence at 25 nM IL-8 domains” value was 15400. Besides, the “CXCR1 activation, luminescence at 100 nM IL-8 domains” value with CXCR1 [3] came to 21600. The “Specific Binding (CXCR1-Cell median AFU / Parental Cell median AFU)” value with CXCR1 [2] was determined as 13.

The record behind these values is patent US20230287598A1 (TAURUS BIOSCIENCES, published 2023).
